Reference: patent US20220089695A1

Key:
[1] = molecular target: SARS-CoV-2 Spike (S) protein, recombinant, construct not stated at the place (SARS-CoV-2) (UniProt P0DTC2)
[2] = molecular target: Tweety Family Member 2 expressed on cells (human) (UniProt Q9BSA4)
[3] = molecular target: Asialoglycoprotein Receptor 1 expressed on cells (human) (UniProt P07306)
[4] = molecular target: C-type lectin domain family 10 member A expressed on cells (human) (UniProt Q8IUN9)
[5] = molecular target: Liver/lymph node-specific intercellular adhesion molecule-3-grabbing integrin expressed on cells (human) (UniProt Q9H2X3)
Liver/lymph node-specific intercellular adhesion molecule-3-grabbing integrin expressed on cells (human), sequence (Q9H2X3 whole entry): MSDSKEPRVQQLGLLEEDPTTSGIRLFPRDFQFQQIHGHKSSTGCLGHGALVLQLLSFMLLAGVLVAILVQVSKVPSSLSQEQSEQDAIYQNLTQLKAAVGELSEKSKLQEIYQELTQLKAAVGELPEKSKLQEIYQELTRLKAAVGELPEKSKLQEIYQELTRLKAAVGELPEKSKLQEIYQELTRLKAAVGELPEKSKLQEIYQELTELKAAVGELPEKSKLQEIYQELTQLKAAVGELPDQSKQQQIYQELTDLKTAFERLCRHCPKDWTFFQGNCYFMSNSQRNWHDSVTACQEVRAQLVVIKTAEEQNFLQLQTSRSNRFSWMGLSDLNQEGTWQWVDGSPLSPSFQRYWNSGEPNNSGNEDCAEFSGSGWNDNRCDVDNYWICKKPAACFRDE

[6] = molecular target: Liver and lymph node sinusoidal endothelial cell C-type lectin expressed on cells (human) (UniProt Q6UXB4)
Liver and lymph node sinusoidal endothelial cell C-type lectin expressed on cells (human), sequence (Q6UXB4 whole entry): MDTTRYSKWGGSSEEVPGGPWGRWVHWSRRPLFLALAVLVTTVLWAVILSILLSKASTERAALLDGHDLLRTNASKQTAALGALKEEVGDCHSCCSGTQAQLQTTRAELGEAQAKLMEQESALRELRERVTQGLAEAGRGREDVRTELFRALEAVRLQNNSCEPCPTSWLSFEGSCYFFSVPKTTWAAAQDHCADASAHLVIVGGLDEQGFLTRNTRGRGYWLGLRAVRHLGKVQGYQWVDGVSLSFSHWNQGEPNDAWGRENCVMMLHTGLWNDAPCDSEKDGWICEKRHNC

[7] = molecular target: Dendritic cell-specific intercellular adhesion molecule-3-grabbing nonintegrin expressed on cells (human) (UniProt Q9NNX6)
Dendritic cell-specific intercellular adhesion molecule-3-grabbing nonintegrin expressed on cells (human), sequence (Q9NNX6 whole entry): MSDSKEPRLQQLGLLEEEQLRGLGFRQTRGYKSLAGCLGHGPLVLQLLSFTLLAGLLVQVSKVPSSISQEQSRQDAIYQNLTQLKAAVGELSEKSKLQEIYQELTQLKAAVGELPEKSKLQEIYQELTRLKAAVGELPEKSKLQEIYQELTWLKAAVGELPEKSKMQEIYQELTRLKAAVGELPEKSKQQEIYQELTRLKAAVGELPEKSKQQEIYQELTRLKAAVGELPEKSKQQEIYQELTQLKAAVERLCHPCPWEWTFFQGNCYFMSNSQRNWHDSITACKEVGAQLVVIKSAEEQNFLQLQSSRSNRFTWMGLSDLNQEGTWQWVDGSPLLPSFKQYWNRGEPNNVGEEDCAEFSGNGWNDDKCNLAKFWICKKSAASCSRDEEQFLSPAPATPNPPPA

C-type lectin domain family 10 member A expressed on cells (human), sequence (Q8IUN9 whole entry, the tested form may be a part): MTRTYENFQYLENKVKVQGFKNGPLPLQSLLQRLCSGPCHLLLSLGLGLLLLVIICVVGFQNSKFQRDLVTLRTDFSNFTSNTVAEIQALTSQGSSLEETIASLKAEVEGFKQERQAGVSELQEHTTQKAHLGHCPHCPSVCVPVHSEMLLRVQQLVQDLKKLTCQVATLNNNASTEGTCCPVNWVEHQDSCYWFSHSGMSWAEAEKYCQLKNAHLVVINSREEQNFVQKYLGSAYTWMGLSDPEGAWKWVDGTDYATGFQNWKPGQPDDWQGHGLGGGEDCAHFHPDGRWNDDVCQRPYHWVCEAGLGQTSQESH
Asialoglycoprotein Receptor 1 expressed on cells (human), sequence (P07306 whole entry, the tested form may be a part): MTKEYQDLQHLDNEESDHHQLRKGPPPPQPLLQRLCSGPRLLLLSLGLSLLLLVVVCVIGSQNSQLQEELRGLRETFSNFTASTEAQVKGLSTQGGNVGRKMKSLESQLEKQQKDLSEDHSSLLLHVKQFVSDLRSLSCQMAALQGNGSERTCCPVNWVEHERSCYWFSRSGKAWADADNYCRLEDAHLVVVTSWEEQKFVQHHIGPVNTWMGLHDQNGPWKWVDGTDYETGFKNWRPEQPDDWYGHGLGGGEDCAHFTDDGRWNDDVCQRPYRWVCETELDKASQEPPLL
Tweety Family Member 2 expressed on cells (human), sequence (Q9BSA4 whole entry): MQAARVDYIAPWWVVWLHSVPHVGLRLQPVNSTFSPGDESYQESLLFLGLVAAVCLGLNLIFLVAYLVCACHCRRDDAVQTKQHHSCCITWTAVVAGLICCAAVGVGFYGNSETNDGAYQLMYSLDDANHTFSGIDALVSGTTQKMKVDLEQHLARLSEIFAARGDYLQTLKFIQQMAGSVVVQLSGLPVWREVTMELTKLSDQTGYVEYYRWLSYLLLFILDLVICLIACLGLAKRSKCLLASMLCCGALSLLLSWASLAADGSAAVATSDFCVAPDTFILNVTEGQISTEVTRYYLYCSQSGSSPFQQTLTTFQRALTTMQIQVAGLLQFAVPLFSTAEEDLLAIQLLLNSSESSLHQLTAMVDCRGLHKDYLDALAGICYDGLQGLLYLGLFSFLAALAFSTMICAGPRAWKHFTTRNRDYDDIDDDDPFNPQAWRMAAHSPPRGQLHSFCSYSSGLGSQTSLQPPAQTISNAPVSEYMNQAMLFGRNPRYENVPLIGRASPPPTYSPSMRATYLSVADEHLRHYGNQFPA

ACE2-Fc + L-SIGN-Fc + ASGR1-Fc showed a blocking of S protein binding (heat-map cell) [1] of 33.7%.

Substance Fc Control has a blocking of S protein binding (heat-map cell) [1] of 0%.

Substance “SARS-CoV-2 S protein displayed on lentiviral (HIV-GFP) pseudovirus (from UniProt P0DTC2 14-1273)” has a cells in the Anti-SARS-CoV-2 S protein (APC) gate [2] of 1.61%, a cells in the Anti-SARS-CoV-2 S protein (APC) gate [3] of 47.6% and a cells in the Anti-SARS-CoV-2 S protein (APC) gate [4] of 3.2%.

“SARS-CoV-2 S protein displayed on lentiviral (HIV-GFP) pseudovirus (from UniProt P0DTC2 14-1273) (other; other documents disagree on this pair)” showed a cells in the Anti-SARS-CoV-2 S protein (APC) gate [5] of 31.7%, a cells in the Anti-SARS-CoV-2 S protein (APC) gate [6] of 1.7% and a cells in the Anti-SARS-CoV-2 S protein (APC) gate [7] of 20.8%.
